Results as given in US20150232556A1.

Molecular target: KIR3DL2CD3ε fusion protein on Jurkat reporter cells (UniProt P43630)
Test: cell-based or functional assay

Sequence of KIR3DL2CD3ε fusion protein on Jurkat reporter cells (P43630 other isoform, or with tags, fused parts or gaps limits assumed): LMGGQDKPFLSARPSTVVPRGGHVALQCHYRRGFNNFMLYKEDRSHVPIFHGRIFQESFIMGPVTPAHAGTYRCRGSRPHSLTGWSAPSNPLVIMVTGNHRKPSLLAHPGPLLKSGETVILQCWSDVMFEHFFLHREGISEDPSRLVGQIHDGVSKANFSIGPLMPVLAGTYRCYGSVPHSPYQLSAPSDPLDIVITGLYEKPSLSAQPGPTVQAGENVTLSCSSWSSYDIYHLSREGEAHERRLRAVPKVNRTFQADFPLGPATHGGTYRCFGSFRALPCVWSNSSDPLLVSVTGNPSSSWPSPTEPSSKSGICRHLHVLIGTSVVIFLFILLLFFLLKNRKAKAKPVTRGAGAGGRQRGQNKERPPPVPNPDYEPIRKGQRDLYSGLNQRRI

IL-2 production by KIR3DL2CD3ε transduced Jurkat reporter cells (ELISA): 6 fold
Substance: HLA-B27 on transfected LCL.LBL.721.221 cells (ligand)
